± gives the uncertainty stated by the source.
test: abundance fitness (aPCA) (normalised: wild type 0, dead -1); higher = more abundant; growth selection in yeast, the domain comes from the species named; details: Homo sapiens

Substance | abundance fitness
Scaffold attachment factor B1 T28L, Q15424 | -0.261 ± 0.07
Scaffold attachment factor B1 T28M, Q15424 | -0.234 ± 0.083
Scaffold attachment factor B1 T28N, Q15424 | -0.196 ± 0.099
Scaffold attachment factor B1 T28P, Q15424 | -0.348 ± 0.07
Scaffold attachment factor B1 T28Q, Q15424 | -0.485 ± 0.073
Scaffold attachment factor B1 T28R, Q15424 | -0.301 ± 0.055
Scaffold attachment factor B1 T28S, Q15424 | -0.183 ± 0.055
Scaffold attachment factor B1 T28V, Q15424 | -0.229 ± 0.056
Scaffold attachment factor B1 T28W, Q15424 | -0.455 ± 0.088
Scaffold attachment factor B1 T28Y, Q15424 | -0.073 ± 0.068
Scaffold attachment factor B1 T78A, Q15424 | -0.345 ± 0.09
Scaffold attachment factor B1 T78C, Q15424 | -0.267 ± 0.079
Scaffold attachment factor B1 T78D, Q15424 | -0.271 ± 0.086
Scaffold attachment factor B1 T78F, Q15424 | -0.323 ± 0.1
Scaffold attachment factor B1 T78H, Q15424 | -0.427 ± 0.096
Scaffold attachment factor B1 T78I, Q15424 | -0.17 ± 0.069
Scaffold attachment factor B1 T78K, Q15424 | -0.131 ± 0.076
Scaffold attachment factor B1 T78L, Q15424 | -0.091 ± 0.057
Scaffold attachment factor B1 T78M, Q15424 | -0.356 ± 0.086
Scaffold attachment factor B1 T78N, Q15424 | -0.182 ± 0.11
Scaffold attachment factor B1 T78P, Q15424 | -0.21 ± 0.071
Scaffold attachment factor B1 T78Q, Q15424 | -0.173 ± 0.074
Scaffold attachment factor B1 T78R, Q15424 | -0.123 ± 0.055
Scaffold attachment factor B1 T78V, Q15424 | -0.133 ± 0.07
Scaffold attachment factor B1 T78W, Q15424 | -0.279 ± 0.065

Substance | abundance fitness
Scaffold attachment factor B1 T78Y, Q15424 | -0.173 ± 0.075
Scaffold attachment factor B1 V36C, Q15424 | -0.281 ± 0.072
Scaffold attachment factor B1 V36D, Q15424 | -0.125 ± 0.068
Scaffold attachment factor B1 V36E, Q15424 | -0.381 ± 0.078
Scaffold attachment factor B1 V36F, Q15424 | -0.279 ± 0.084
Scaffold attachment factor B1 V36G, Q15424 | -0.348 ± 0.057
Scaffold attachment factor B1 V36H, Q15424 | -0.409 ± 0.098
Scaffold attachment factor B1 V36K, Q15424 | -0.19 ± 0.078
Scaffold attachment factor B1 V36L, Q15424 | -0.063 ± 0.053
Scaffold attachment factor B1 V36M, Q15424 | -0.031 ± 0.065
Scaffold attachment factor B1 V36N, Q15424 | -0.275 ± 0.064
Scaffold attachment factor B1 V36P, Q15424 | -0.281 ± 0.087
Scaffold attachment factor B1 V36Q, Q15424 | -0.417 ± 0.085
Scaffold attachment factor B1 V36R, Q15424 | -0.258 ± 0.052
Scaffold attachment factor B1 V36T, Q15424 | -0.134 ± 0.082
Scaffold attachment factor B1 V36W, Q15424 | -0.37 ± 0.07
Scaffold attachment factor B1 V36Y, Q15424 | -0.366 ± 0.072
Scaffold attachment factor B1 V48C, Q15424 | -0.133 ± 0.07
Scaffold attachment factor B1 V48D, Q15424 | -0.768 ± 0.11
Scaffold attachment factor B1 V48E, Q15424 | -0.231 ± 0.075
Scaffold attachment factor B1 V48F, Q15424 | -0.157 ± 0.085
Scaffold attachment factor B1 V48G, Q15424 | -0.195 ± 0.057
Scaffold attachment factor B1 V48H, Q15424 | -0.125 ± 0.08
Scaffold attachment factor B1 V48K, Q15424 | -0.118 ± 0.095
Scaffold attachment factor B1 V48L, Q15424 | -0.056 ± 0.065

Substance | abundance fitness
Scaffold attachment factor B1 V48M, Q15424 | -0.083 ± 0.082
Scaffold attachment factor B1 V48N, Q15424 | -0.362 ± 0.11
Scaffold attachment factor B1 V48P, Q15424 | -0.691 ± 0.091
Scaffold attachment factor B1 V48Q, Q15424 | -0.388 ± 0.096
Scaffold attachment factor B1 V48R, Q15424 | -0.078 ± 0.057
Scaffold attachment factor B1 V48S, Q15424 | -0.255 ± 0.059
Scaffold attachment factor B1 V48T, Q15424 | -0.254 ± 0.083
Scaffold attachment factor B1 V48W, Q15424 | -0.281 ± 0.062
Scaffold attachment factor B1 V56A, Q15424 | -0.101 ± 0.059
Scaffold attachment factor B1 V56C, Q15424 | -0.177 ± 0.095
Scaffold attachment factor B1 V56E, Q15424 | -0.15 ± 0.078
Scaffold attachment factor B1 V56F, Q15424 | -0.414 ± 0.072
Scaffold attachment factor B1 V56G, Q15424 | -0.305 ± 0.063
Scaffold attachment factor B1 V56H, Q15424 | -0.226 ± 0.076
Scaffold attachment factor B1 V56I, Q15424 | -0.126 ± 0.067
Scaffold attachment factor B1 V56K, Q15424 | -0.197 ± 0.064
Scaffold attachment factor B1 V56M, Q15424 | -0.16 ± 0.07
Scaffold attachment factor B1 V56N, Q15424 | -0.169 ± 0.064
Scaffold attachment factor B1 V56Q, Q15424 | -0.249 ± 0.083
Scaffold attachment factor B1 V56R, Q15424 | -0.121 ± 0.054
Scaffold attachment factor B1 V56S, Q15424 | -0.129 ± 0.049
Scaffold attachment factor B1 V56T, Q15424 | -0.202 ± 0.069
Scaffold attachment factor B1 V56W, Q15424 | -0.476 ± 0.052
Scaffold attachment factor B1 V56Y, Q15424 | -0.345 ± 0.07

From the Human Domainome abundance scans (Beltran et al. 2025)
